The text below walks through data of patent US20180009908.

For data set [1], the target named is T1, HA-tagged human IgG1 Fc portion with CH3 mutations E356G, E357D, S364Q, Y407A.
T1 chain: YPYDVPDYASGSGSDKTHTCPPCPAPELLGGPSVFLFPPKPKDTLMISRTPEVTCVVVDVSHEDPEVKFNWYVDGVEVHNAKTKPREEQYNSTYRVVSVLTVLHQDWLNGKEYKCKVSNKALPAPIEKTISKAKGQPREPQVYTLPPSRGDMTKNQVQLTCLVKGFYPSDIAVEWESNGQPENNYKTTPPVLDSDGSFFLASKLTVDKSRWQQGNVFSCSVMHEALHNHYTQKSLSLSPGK
Briefly: UPLC SEC of protein G-purified one-arm antibody co-expressed in HEK293F.

In data set [2] the target is T2, HA-tagged human IgG1 Fc portion with CH3 mutations E357D, S364Q, Y407A.
T2 chain: T1 chain with G150E
The description is as above.

In data set [3] the target is T3, HA-tagged human IgG1 Fc portion with CH3 mutations E357D, S364R, Y407A.
T3 chain: T1 chain with G150E, Q158R
The data set is described as above.

Data set [4] deals with BHA10 HC_20.8_B + BHA10 LC (IgG1). The data set can be described thus: LCMS, IgG1 BsAb co-expression in HEK293F.
Data set [5] deals with matuzumab HC_20.8_B + matuzumab LC (IgG1). The data set can be described thus: LCMS, IgG1 BsAb co-expression in HEK293F.
A short description of data set [6]: LCMS, IgG1 BsAb co-expression; HCA homodimer species.
In data set [7] the target is BHA10 HC_20.8_B + BHA10 LC (IgG1). Briefly: LCMS, IgG1 BsAb co-expression; HCA/HCB heterodimer carrying two LC1.
The target in data set [8] is matuzumab HC_20.8_B + matuzumab LC (IgG1). The data set is described as above.
For data set [9], the target named is BHA10 HC_20.8_B + BHA10 LC (IgG1). Briefly: LCMS, IgG1 BsAb co-expression; HCA/HCB heterodimer carrying two LC2.
In data set [10] the target is matuzumab HC_20.8_B + matuzumab LC (IgG1). The description is as above.
For data set [11], the target named is BHA10 HC_7.8.60_B + BHA10 LC (IgG4 HC backbone). The data set can be described thus: LCMS, IgG4 BsAb co-expression in HEK293F.
For data set [12], the target named is matuzumab HC_7.8.60_B + matuzumab LC (IgG4 HC backbone). The data set can be described thus: LCMS, IgG4 BsAb co-expression in HEK293F.
The nature of data set [13]: LCMS, IgG4 BsAb co-expression; HCA homodimer species.
Data set [14] concerns the target BHA10 HC_7.8.60_B + BHA10 LC (IgG4 HC backbone). The data set can be described thus: LCMS, IgG4 BsAb co-expression; HCA/HCB heterodimer carrying two LC1.
The target in data set [15] is matuzumab HC_7.8.60_B + matuzumab LC (IgG4 HC backbone). Described as above.
Data set [16] deals with BHA10 HC_7.8.60_B + BHA10 LC (IgG4 HC backbone). The data set can be described thus: LCMS, IgG4 BsAb co-expression; HCA/HCB heterodimer carrying two LC2.
The target in data set [17] is matuzumab HC_7.8.60_B + matuzumab LC (IgG4 HC backbone). The data set is described as above.
The target of data set [18] is BHA10 HC_20.8.34_B + BHA10 LC (IgG4 HC backbone). The data set can be described thus: LCMS, IgG4 BsAb co-expression in HEK293F.
Data set [19] addresses matuzumab HC_20.8.34_B + matuzumab LC (IgG4 HC backbone). Briefly: LCMS, IgG4 BsAb co-expression in HEK293F.
Data set [20] deals with BHA10 HC_20.8.34_B + BHA10 LC (IgG4 HC backbone). Briefly: LCMS, IgG4 BsAb co-expression; HCA/HCB heterodimer carrying two LC1.
The target of data set [21] is matuzumab HC_20.8.34_B + matuzumab LC (IgG4 HC backbone). The data set is described as above.
Data set [22] has as its target BHA10 HC_20.8.34_B + BHA10 LC (IgG4 HC backbone). Briefly: LCMS, IgG4 BsAb co-expression; HCA/HCB heterodimer carrying two LC2.
Data set [23] addresses matuzumab HC_20.8.34_B + matuzumab LC (IgG4 HC backbone). The data set is described as above.
Setting [24] is: Pertuzumab × BHA10 IgG BsAbs (with select CH3 Designs).
[25] abbreviates: Pertuzumab × Matuzumab IgG BsAbs (with select CH3 Designs).

Where a chain is given by its changes, count along the chain named. Numbers in names are those of the source.

B1: anti-c-Met 5D5 VH-human IgG1 HC with CH3 mutations Y349S, K370Y, T366V, K409V, with 5D5 light chain (protein)
chain 1: EVQLVESGGGLVQPGGSLRLSCAASGYTFTSYWLHWVRQAPGKGLEWVGMIDPSNSDTRFNPNFKDRFTISADTSKNTAYLQMNSLRAEDTAVYYCATYRSYVTPLDYWGQGTLVTVSSASTKGPSVFPLAPSSKSTSGGTAALGCLVKDYFPEPVTVSWNSGALTSGVHTFPAVLQSSGLYSLSSVVTVPSSSLGTQTYICNVNHKPSNTKVDKRVEPKSCDKTHTCPPCPAPELLGGPSVFLFPPKPKDTLMISRTPEVTCVVVDVSHEDPEVKFNWYVDGVEVHNAKTKPREEQYNSTYRVVSVLTVLHQDWLNGKEYKCKVSNKALPAPIEKTISKAKGQPREPQVSTLPPSREEMTKNQVSLVCLVYGFYPSDIAVEWESNGQPENNYKTTPPVLDSDGSFFLYSVLTVDKSRWQQGNVFSCSVMHEALHNHYTQKSLSLSPGK
chain 2: DIQMTQSPSSLSASVGDRVTITCKSSQSLLYTSSQKNYLAWYQQKPGKAPKLLIYWASTRESGVPSRFSGSGSGTDFTLTISSLQPEDFATYYCQQYYAYPWTFGQGTKVEIKRTVAAPSVFIFPPSDEQLKSGTASVVCLLNNFYPREAKVQWKVDNALQSGNSQESVTEQDSKDSTYSLSSTLTLSKADYEKHKVYACEVTHQGLSSPVTKSFNRGEC
For B1, the % heterodimer (UPLC) in data set [1] turned out to be 93%; in data set [2], 84.9%; in data set [3], 86.5%.

B2: anti-c-Met 5D5 VH-human IgG1 HC with CH3 mutations Y349S, K370Y, T366M, K409V, with 5D5 light chain (protein)
chain 1: B1 chain 1 with V368M
chain 2: B1 chain 2
As for B2, the results for the % heterodimer (UPLC) in data set [1], in data set [2] and in [3] were 83.8%, 86% and 83.5%, respectively.

B3: pertuzumab HC_20.8_A + pertuzumab LC (IgG1) (protein)
chain 1: EVQLVESGGGLVQPGGSLRLSCAASGFTFTDYTMDWVRKAPGKGLEWVADVNPNSGGSIYNQEFKGRFTLSVDRSKNTLYLQMNSLRAEDTAVYYCARNLGPSFYFDYWGQGTLVTVSSASTKGPSVFPLAPSSKSTSGGTAALGCLVKDYFPEPVTVSWNSGALTSGVATGPAVLQSSGLYSLSSVVTVPSSSLGTQTYICNVNHKPSNTKVDKKVEPKSCDKTHTCPPCPAPELLGGPSVFLFPPKPKDTLMISRTPEVTCVVVDVSHEDPEVKFNWYVDGVEVHNAKTKPREEQYQSTYRVVSVLTVLHQDWLNGKEYKCKVSNKALPAPIEKTISKAKGQPREPQVSTLPPSREEMTKNQVSLVCLVYGFYPSDIAVEWESNGQPENNYKTTPPVLDSDGSFFLYSVLTVDKSRWQQGNVFSCSVMHEALHNHYTQKSLSLSPGK
chain 2: RIQMTQSPSSLSASVGDRVTITCKASQDVSIGVAWYQDKPGKAPKLLIYSASYRYTGVPSRFSGSGSGTDFTLTISSLQPEDFATYYCQQYYIYPYTFGQGTKVEIKGQPKAAPSVTLFPPSSEELQANKATLVCYISDFYPGAVTVAWKADSSPVKAGVETTTPSKQSNNKYAAWSYLSLTPEQWKSHRSYSCQVTHEGSTVEKTVAPTEC
Consider B3, for which the figures for the % AB (LC1/LC2) (correct IgG BsAb assembly) in [4] and in data set [5] were 96.5% and 96%, respectively. For the same protein, the % AA Homodimer (incorrect assembly) is 3.5% in data set [6] (pertuzumab × BHA10 bispecific) and 2.1% in data set [6] (pertuzumab × matuzumab bispecific). The % AB (2x LC1) (incorrect assembly) in [7] and in data set [8] was 0% in each case. For the same protein, the % AB (2x LC2) (incorrect assembly) in data set [9] and in [10] was 0% throughout.

B4: pertuzumab HC_7.8.60_A + pertuzumab LC (IgG4 HC backbone) (protein)
chain 1: EVQLVESGGGLVQPGGSLRLSCAASGFTFTDYTMDWVRKAPGKGLEWVADVNPNSGGSIYNQEFKGRFTLSVDRSKNTLYLQMNSLRAEDTAVYYCARNLGPSFYFDYWGQGTLVTVSSASTKGPSVFPLAPCSRSTSESTAALGCLVKDYFPEPVTVSWNSGALTSGVATGPAVLQSSGLYSLSSVVTVPSSSLGTKTYTCNVDHKPSNTKVDKRVESKYGPPCPPCPAPEAAGGPSVFLFPPKPKDTLMISRTPEVTCVVVDVSQEDPEVQFNWYVDGVEVHNAKTKPREEQFQSTYRVVSVLTVLHQDWLNGKEYKCKVSNKGLPSSIEKTISKAKGQPREPQVYTLPPSQEEMTDNQVSLTCLVKGFYPSDIAVEWESNGQPENNYKTTPPVLMSDGSFFLASRLTVDKSRWQEGNVFSCSVMHEALHNHYTQKSLSLSLG
chain 2: B3 chain 2
Regarding B4, the % AB (LC1/LC2) (correct IgG BsAb assembly) was determined as 95.8% in data set [11] and 90.9% in [12]. The % AA Homodimer (incorrect assembly) in [13] (setting [24]) worked out at 0%; in data set [13] (setting [25]), 9.1%. Moreover, the % AB (2x LC1) (incorrect assembly) in [14] and in [15] was 0% each time. Besides, the % AB (2x LC2) (incorrect assembly) in data set [16] and in data set [17] was 0% in each case.

B5: pertuzumab HC_20.8.34_A + pertuzumab LC (IgG4 HC backbone) (protein)
chain 1: B4 chain 1 with Y348S, D359K, T365M, K369Y, M398D, A406Y, R408V
chain 2: B3 chain 2
Take B5: the results for the % AB (LC1/LC2) (correct IgG BsAb assembly) in data set [18] and in data set [19] were 94.8% and 94.1%, respectively. Also, the % AA Homodimer (incorrect assembly) in data set [13] (setting [24]) came to 5.2%; in data set [13] (setting [25]), 2.3%. Besides, the % AB (2x LC1) (incorrect assembly) in [20] and in data set [21] was 0% each time. For the same protein, the % AB (2x LC2) (incorrect assembly) in [22] and in data set [23] was 0% throughout.
